Measured values from the supplement of paper PMC11865577.

Key:
Experiment in all cases: pull-down binding Z-score (relative to library population); higher = stronger binding
[1] = test system: G-clamp-N3 (biotin conjugate); details: RNA library: Library-1 (pre-miRNA loops + repeats)
In short: (§1)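 Binding is given as a Z-score against the library mean and standard deviation, calculated after removing the beads-only signal and averaging barcoded replicate probes without their highest and lowest values. Cy5- or Cy3-end-labelled RNA library (1 μg) was heat-folded in phosphate/NaCl/KCl buffer and incubated 60 min at 25 °C with streptavidin beads bearing 100 pmol of biotin-conjugated small molecule. After three washes, RNA eluted in hot SDS was hybridised to a DNA barcode microarray for 20 h at 55.5 °C.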

[2] = test system: TO-3-N3 (biotin conjugate); details: RNA library: Library-2
In short: as §1

[3] = test system: TO-3-N3-2 (biotin conjugate); details: RNA library: Library-2
In short: as §1

TO-N3 (biotin conjugate) = details: RNA library: Library-2
In short: as §1

[4] = test system: TO-N3-2 (biotin conjugate); details: RNA library: Library-2
In short: as §1

| Sequence | pull-down binding Z-score [1] | pull-down binding Z-score [2] | pull-down binding Z-score [3] | pull-down binding Z-score (TO-N3 (biotin conjugate)) | pull-down binding Z-score [4] |
| --- | --- | --- | --- | --- | --- |
| ACAGCGCCACGGAAGAGGACGCA [hsa-mir-941-4_941-5_941-2_941-3_941-1] | -0.758 | 0.0968 | -0.211 | 0.495 | 0.874 |
| GUGUCGCCCCACGAGGGGGACUGU [hsa-mir-4322] | -0.152 | -0.00462 | -0.362 | 0.327 | 0.483 |
| AGCUGUUGGCCAUGGCGACAACACCU [hsa-mir-6742] | 0.213 | -0.508 | -0.322 | -0.246 | 0.561 |
| GGACUCAGCCCUGUGCUGAGCCC [hsa-mir-5587] | -0.0279 | 0.722 | -0.313 | 0.532 | -0.961 |
| AGCAGUACCAGACGGUUCUGUGG [hsa-mir-3198-1] | -0.487 | -0.321 | -0.0913 | 0.0664 | 0.525 |
| UUGUGAAACACAGGUGUUUUUUAACCUCAC [hsa-mir-6841] | -0.237 | 0.199 | 0.0964 | 0.172 | 0.257 |
| GUUCGGGGGUUCCGACGGCGAC [hsa-mir-6790] | 3.09 | 2.61 | 0.957 | 2.67 | 1.76 |
| UGUUGGGGGGACA [hsa-mir-4262] | -0.216 | 2.24 | 1.63 | 1.67 | 0.707 |
| AGAGCGUGGGCUGGGGUUCAGGGACACCCUCU [hsa-mir-1229] | 1.46 | 1.15 | 0.738 | 1.57 | 1.86 |
| GUUUAUUUUGUAGC [hsa-mir-4317] | -1.09 | 0.299 | -0.0511 | 0.221 | -0.593 |
| UAUUCGCUUUAUUGACUUCGAAUA [hsa-mir-369] | -0.422 | -0.0221 | -0.144 | -0.246 | -0.736 |
| CUGGGGAGCCGGACAGCUCCCUUCCCAG [hsa-mir-3155a] | 0.802 | 0.918 | -0.168 | 0.7 | -0.0145 |
| GAUUCGCUUUACUUAUGACGAAUC [hsa-mir-382] | -0.449 | -0.268 | -0.107 | -0.424 | -0.716 |
| UGGGUAGAAAGUAUUAUUCUAUUCA [hsa-mir-664b] | -0.0123 | 0.0201 | -0.0975 | -0.28 | -0.83 |
| AUGGGAGCCCAGAGACGUCCUAU [hsa-mir-8074] | 0.253 | -0.304 | -0.433 | 0.0134 | 0.669 |
| UGUUGACUGAAUAAUAAACA [hsa-mir-3139] | -1.29 | -0.946 | -0.319 | -1.23 | -0.846 |
| UCACUGUGAACAGUCUCAGUCAGUGA [hsa-mir-183] | -0.0454 | -0.81 | -0.331 | -0.919 | -0.631 |
| GAGUGGUCGGGUCGACUGAACC [hsa-mir-4726] | -0.197 | 0.829 | 0.454 | 1.23 | 1.34 |
| AGGCUGUCUUCAUUCCCUCUUGACCACCC [hsa-mir-6795] | -1.03 | 1.19 | 0.213 | 1.29 | 0.709 |
| UAGGUUGUGUGCUGUCCAGCCUG [hsa-mir-26b] | -0.497 | -0.484 | -0.429 | -0.388 | 0.271 |

| Sequence | pull-down binding Z-score [1] | pull-down binding Z-score [2] | pull-down binding Z-score [3] | pull-down binding Z-score (TO-N3 (biotin conjugate)) | pull-down binding Z-score [4] |
| --- | --- | --- | --- | --- | --- |
| CAAGGAAGAGUCACAGUCUCUUCCUUG [hsa-mir-659] | -0.00418 | -0.474 | -0.285 | -0.699 | -0.539 |
| AUUGCUGGACGCUGCCCUGGGCAU [hsa-mir-25] | -0.192 | 0.362 | 0.488 | 1.12 | 1.4 |
| AGGGCAAGUCCAAAGGUAUACAGUUGGUCUGUUCA [hsa-mir-7107] | 1.04 | -0.459 | -0.208 | -0.107 | 0.381 |
| UGCCCUGGGGCCGUCCCUGCGCA [hsa-mir-1909] | -1.26 | 0.425 | 0.143 | 0.883 | 1.63 |
| CUUAGUAGGUGAUAGCAUGACUGAC [hsa-mir-5002] | 1.66 | 0.324 | 0.356 | 0.958 | 1.16 |
| AUGGUGUUUGUGAGUUGAUUGACAUCGU [hsa-mir-6506] | -0.212 | -0.398 | -0.457 | -0.408 | 0.0463 |
| UUUCUGUUGUCUGAAAGAAAAGAAC [hsa-mir-523] | -0.976 | -0.301 | 0.0657 | -0.0983 | 0.513 |
| UUCUUCCUGGAGUCGGGGAAAAG [hsa-mir-320e] | 1.31 | 0.308 | -0.0301 | 0.516 | 0.278 |
| UUCUCGAGUCUAUGGCUCCGGCCGAGAG [hsa-mir-219a-1] | -0.199 | 0.197 | 0.358 | 0.342 | 1.1 |
| GGCGCACAGCAGACCCUGCAAUCAUGCC [hsa-mir-3164] | 0.000458 | 0.966 | 0.119 | 1.03 | 0.621 |
| CUUAAGUGGUUCGGGUAAAUCACUUUAA [hsa-mir-3977] | -1.04 | -0.623 | -0.186 | -0.623 | -0.585 |
| GGGAGUGGUUCCAUCACGCCUCCUCAC [hsa-mir-483] | -0.668 | -0.089 | -0.147 | 0.311 | 0.658 |
| GUGUUGGGUAUAAGUAACA [hsa-mir-1270] | -0.877 | -0.205 | 0.157 | 0.257 | 0.457 |
| GGGCUUUCUGGUUUUAUUUUAAGCCC [hsa-mir-186] | 0.465 | 0.594 | 0.0672 | 0.261 | -0.494 |
| CAGUGGGGACAUG [hsa-mir-4531] | -0.559 | 2.18 | 1.52 | 1.77 | 0.957 |
| CUGGCAUUUACGAGUCAGAGUUCUUACAGAGCUGC [hsa-mir-6514] | -1.37 | 0.163 | 0.16 | 0.639 | 1.48 |
| AAGUAAUUGUUUCUAAUGUACU [hsa-mir-412] | 0.96 | -0.549 | 0.0532 | 0.00941 | 0.583 |
| AGUAUGGAUUAAAUUUAUAUUUUCCUCGAUACU [hsa-mir-8084] | 0.482 | 0.413 | 0.212 | 0.316 | -0.547 |
| UGUUAAGGCAUGUUCAGGAACA [hsa-mir-1265] | 2.1 | -0.0763 | 0.401 | 0.28 | 0.652 |
| UUCUGUUGUCAGAAAGAAGAGAA [hsa-mir-1283-1] | 0.462 | 0.146 | -0.107 | 0.0942 | -0.0355 |

| Sequence | pull-down binding Z-score [1] | pull-down binding Z-score [2] | pull-down binding Z-score [3] | pull-down binding Z-score (TO-N3 (biotin conjugate)) | pull-down binding Z-score [4] |
| --- | --- | --- | --- | --- | --- |
| UGGCGACACUCGCGCCAGCUCCCGGGACGGCUGGGCUCGGGCUGGUCGCCGA [hsa-mir-7845] | 3.14 | 0.0309 | -0.167 | 0.341 | 1.38 |
| GGGGCUCUU [hsa-mir-4634] | -0.697 | 0.0873 | 0.0655 | 0.365 | 0.21 |
| GUUUGAUAGUUUAGACACAAAC [hsa-mir-3591] | 0.0903 | 0.44 | 0.11 | 0.263 | -0.389 |
| CGAGACACAGAAACAGACACCUGCCCUCGA [hsa-mir-151b] | -2.29 | 0.442 | 0.464 | 1.21 | 1.69 |
| GGCAUCCCCAUUGCU [hsa-mir-4304] | -0.987 | 0.527 | -0.113 | 0.343 | 0.191 |
| UGAGGAGCUUAGCAAGUAGCUAAGGCCAGA [hsa-mir-4517] | 0.384 | -0.194 | -0.393 | 0.339 | 1.1 |
| UAUUCUCUAU [hsa-mir-2054] | -1.01 | 0.52 | -0.276 | 0.367 | -0.297 |
| CCUUGCCUGUGGCAAGACCACUUCGGUUCAAGG [hsa-mir-4295] | 0.54 | 0.0272 | -0.191 | 0.0379 | 0.237 |
| AUGGUUAAUGUUCCACAGCCA [hsa-mir-5190] | -0.723 | -0.134 | 0.157 | 0.0767 | 0.372 |
| UUGGGGAGGAGCUAAGAAGCCCCUACAGGGCCCAG [hsa-mir-4257] | 1.25 | 0.138 | 0.24 | 0.56 | 1.05 |
| GCAAGGCUGUAGUGUGCACAGCCUUGA [hsa-mir-4452] | -0.383 | 0.945 | 0.127 | 0.936 | 0.583 |
| UGUACGCUUUAUUUGUGACGUAGG [hsa-mir-1197] | -0.171 | -0.438 | -0.0204 | -0.195 | 0.0488 |
| GGUUUCCUUCGGGGCAGGUGGGGACUGCUCCUUUGGGAGGAAGGAGGAGGCC [hsa-mir-4453] | 1.28 | 2.21 | 1.96 | 2.34 | 2.11 |
| GGGCAUUCCGGAUAGGCCGAGAAAGUGUUG [hsa-mir-6723] | 0.79 | 1.45 | 0.568 | 1.67 | 1.42 |
| CCCAUUUAAAAUAUGGAA [hsa-mir-548ai] | -2.02 | 0.535 | -0.0892 | 0.322 | -0.0504 |
| GUGAUUGUCUUCCUCACUCAAUCAG [hsa-mir-4704] | -1.11 | 0.145 | -0.174 | 0.0942 | -0.0609 |
| UGUUCAGUGGGAUUUGGAGA [hsa-mir-8061] | -0.118 | 0.542 | 0.152 | 0.645 | 0.449 |
| AUAUGUGUGUAUAUAUGUACACAUAC [hsa-mir-466] | -0.157 | -0.227 | -0.378 | -0.604 | -1.14 |
